In paper PMC10786891, “Massively parallel profiling of RNA-targeting CRISPR-Cas13d”:

T1: EsCas13d, nuclease-dead (Eubacterium siraeum, UniProt B0MS50, R295A;H300A;R849A;H854A)
T1 sequence: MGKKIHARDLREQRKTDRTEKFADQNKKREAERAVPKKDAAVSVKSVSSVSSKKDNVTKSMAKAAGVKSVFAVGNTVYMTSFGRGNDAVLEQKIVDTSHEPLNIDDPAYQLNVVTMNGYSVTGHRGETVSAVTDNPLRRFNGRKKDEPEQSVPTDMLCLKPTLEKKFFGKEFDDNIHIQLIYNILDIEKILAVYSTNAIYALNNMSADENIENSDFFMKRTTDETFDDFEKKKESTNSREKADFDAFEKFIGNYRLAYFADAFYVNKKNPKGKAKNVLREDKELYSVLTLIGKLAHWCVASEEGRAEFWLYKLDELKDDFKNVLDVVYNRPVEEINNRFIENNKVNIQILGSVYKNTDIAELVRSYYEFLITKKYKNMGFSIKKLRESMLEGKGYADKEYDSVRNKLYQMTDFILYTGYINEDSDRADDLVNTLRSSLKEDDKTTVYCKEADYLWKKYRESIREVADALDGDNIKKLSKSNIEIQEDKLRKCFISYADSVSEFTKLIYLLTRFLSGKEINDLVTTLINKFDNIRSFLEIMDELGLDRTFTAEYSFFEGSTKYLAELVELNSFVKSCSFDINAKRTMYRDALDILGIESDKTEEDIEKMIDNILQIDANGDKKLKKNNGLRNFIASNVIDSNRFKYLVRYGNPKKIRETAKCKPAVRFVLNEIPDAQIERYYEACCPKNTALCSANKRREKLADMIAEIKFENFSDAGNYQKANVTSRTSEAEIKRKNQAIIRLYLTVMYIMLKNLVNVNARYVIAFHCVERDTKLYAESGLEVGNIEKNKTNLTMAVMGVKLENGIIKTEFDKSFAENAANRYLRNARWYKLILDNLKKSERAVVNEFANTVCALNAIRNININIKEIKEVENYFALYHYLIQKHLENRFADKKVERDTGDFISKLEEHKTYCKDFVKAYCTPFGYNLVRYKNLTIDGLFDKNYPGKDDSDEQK

B1: target 2 MT 5'PFS AAG 3'PFS ACG (mixed)
RNA 1: CACCCGUGCAAAAUUGCAGGGGUCUAAAACCUUCUCCAAAUUGUUUCAUCCU
RNA 2: GGGAAUGGAUCCACAUCUACGAAUUCAAGAGGAUGAAACAAUUUGGAGAAGACGAGAUCGGAAGAGCACACGU
B2: target 2 MT 5'PFS GCA 3'PFS UGU (mixed)
RNA 1: CACCCGUGCAAAAUUGCAGGGGUCUAAAACCUUCUCCAAAUUGUUUCAUCCU
RNA 2: GGGAAUGGAUCCACAUCUACGAAUUCGCAAGGAUGAAACAAUUUGGAGAAGUGUAGAUCGGAAGAGCACACGU
B3: target 2 MT 5'PFS UAU 3'PFS CGC (mixed)
RNA 1: CACCCGUGCAAAAUUGCAGGGGUCUAAAACCUUCUCCAAAUUGUUUCAUCCU
RNA 2: GGGAAUGGAUCCACAUCUACGAAUUCUAUAGGAUGAAACAAUUUGGAGAAGCGCAGAUCGGAAGAGCACACGU
B4: target 2 MT 5'PFS UAU 3'PFS AGA (mixed)
RNA 1: CACCCGUGCAAAAUUGCAGGGGUCUAAAACCUUCUCCAAAUUGUUUCAUCCU
RNA 2: GGGAAUGGAUCCACAUCUACGAAUUCUAUAGGAUGAAACAAUUUGGAGAAGAGAAGAUCGGAAGAGCACACGU
B5: target 2 MT 5'PFS GCA 3'PFS UGA (mixed)
RNA 1: CACCCGUGCAAAAUUGCAGGGGUCUAAAACCUUCUCCAAAUUGUUUCAUCCU
RNA 2: GGGAAUGGAUCCACAUCUACGAAUUCGCAAGGAUGAAACAAUUUGGAGAAGUGAAGAUCGGAAGAGCACACGU
B6: target 2 MT 5'PFS CUU 3'PFS UGU (mixed)
RNA 1: CACCCGUGCAAAAUUGCAGGGGUCUAAAACCUUCUCCAAAUUGUUUCAUCCU
RNA 2: GGGAAUGGAUCCACAUCUACGAAUUCCUUAGGAUGAAACAAUUUGGAGAAGUGUAGAUCGGAAGAGCACACGU
B7: target 2 MT 5'PFS CAC 3'PFS ACU (mixed)
RNA 1: CACCCGUGCAAAAUUGCAGGGGUCUAAAACCUUCUCCAAAUUGUUUCAUCCU
RNA 2: GGGAAUGGAUCCACAUCUACGAAUUCCACAGGAUGAAACAAUUUGGAGAAGACUAGAUCGGAAGAGCACACGU
B8: target 2 MT 5'PFS UAA 3'PFS ACG (mixed)
RNA 1: CACCCGUGCAAAAUUGCAGGGGUCUAAAACCUUCUCCAAAUUGUUUCAUCCU
RNA 2: GGGAAUGGAUCCACAUCUACGAAUUCUAAAGGAUGAAACAAUUUGGAGAAGACGAGAUCGGAAGAGCACACGU
B9: target 2 MT 5'PFS AUU 3'PFS UAA (mixed)
RNA 1: CACCCGUGCAAAAUUGCAGGGGUCUAAAACCUUCUCCAAAUUGUUUCAUCCU
RNA 2: GGGAAUGGAUCCACAUCUACGAAUUCAUUAGGAUGAAACAAUUUGGAGAAGUAAAGAUCGGAAGAGCACACGU
B10: target 2 MT 5'PFS UAU 3'PFS CGA (mixed)
RNA 1: CACCCGUGCAAAAUUGCAGGGGUCUAAAACCUUCUCCAAAUUGUUUCAUCCU
RNA 2: GGGAAUGGAUCCACAUCUACGAAUUCUAUAGGAUGAAACAAUUUGGAGAAGCGAAGAUCGGAAGAGCACACGU
B11: target 2 MT 5'PFS UAA 3'PFS ACA (mixed)
RNA 1: CACCCGUGCAAAAUUGCAGGGGUCUAAAACCUUCUCCAAAUUGUUUCAUCCU
RNA 2: GGGAAUGGAUCCACAUCUACGAAUUCUAAAGGAUGAAACAAUUUGGAGAAGACAAGAUCGGAAGAGCACACGU
B12: target 2 MT 5'PFS GCA 3'PFS UGC (mixed)
RNA 1: CACCCGUGCAAAAUUGCAGGGGUCUAAAACCUUCUCCAAAUUGUUUCAUCCU
RNA 2: GGGAAUGGAUCCACAUCUACGAAUUCGCAAGGAUGAAACAAUUUGGAGAAGUGCAGAUCGGAAGAGCACACGU
B13: target 2 MT 5'PFS GUG 3'PFS CAU (mixed)
RNA 1: CACCCGUGCAAAAUUGCAGGGGUCUAAAACCUUCUCCAAAUUGUUUCAUCCU
RNA 2: GGGAAUGGAUCCACAUCUACGAAUUCGUGAGGAUGAAACAAUUUGGAGAAGCAUAGAUCGGAAGAGCACACGU
B14: target 2 MT 5'PFS UAU 3'PFS CGU (mixed)
RNA 1: CACCCGUGCAAAAUUGCAGGGGUCUAAAACCUUCUCCAAAUUGUUUCAUCCU
RNA 2: GGGAAUGGAUCCACAUCUACGAAUUCUAUAGGAUGAAACAAUUUGGAGAAGCGUAGAUCGGAAGAGCACACGU
B15: target 2 MT 5'PFS UAA 3'PFS ACC (mixed)
RNA 1: CACCCGUGCAAAAUUGCAGGGGUCUAAAACCUUCUCCAAAUUGUUUCAUCCU
RNA 2: GGGAAUGGAUCCACAUCUACGAAUUCUAAAGGAUGAAACAAUUUGGAGAAGACCAGAUCGGAAGAGCACACGU
B16: target 2 MT 5'PFS UAU 3'PFS AGU (mixed)
RNA 1: CACCCGUGCAAAAUUGCAGGGGUCUAAAACCUUCUCCAAAUUGUUUCAUCCU
RNA 2: GGGAAUGGAUCCACAUCUACGAAUUCUAUAGGAUGAAACAAUUUGGAGAAGAGUAGAUCGGAAGAGCACACGU
B17: target 2 MT 5'PFS ACG 3'PFS CGC (mixed)
RNA 1: CACCCGUGCAAAAUUGCAGGGGUCUAAAACCUUCUCCAAAUUGUUUCAUCCU
RNA 2: GGGAAUGGAUCCACAUCUACGAAUUCACGAGGAUGAAACAAUUUGGAGAAGCGCAGAUCGGAAGAGCACACGU
B18: target 2 MT 5'PFS UAU 3'PFS CGG (mixed)
RNA 1: CACCCGUGCAAAAUUGCAGGGGUCUAAAACCUUCUCCAAAUUGUUUCAUCCU
RNA 2: GGGAAUGGAUCCACAUCUACGAAUUCUAUAGGAUGAAACAAUUUGGAGAAGCGGAGAUCGGAAGAGCACACGU
B19: target 2 MT 5'PFS UAU 3'PFS AGC (mixed)
RNA 1: CACCCGUGCAAAAUUGCAGGGGUCUAAAACCUUCUCCAAAUUGUUUCAUCCU
RNA 2: GGGAAUGGAUCCACAUCUACGAAUUCUAUAGGAUGAAACAAUUUGGAGAAGAGCAGAUCGGAAGAGCACACGU
B20: target 2 MT 5'PFS UAU 3'PFS AGG (mixed)
RNA 1: CACCCGUGCAAAAUUGCAGGGGUCUAAAACCUUCUCCAAAUUGUUUCAUCCU
RNA 2: GGGAAUGGAUCCACAUCUACGAAUUCUAUAGGAUGAAACAAUUUGGAGAAGAGGAGAUCGGAAGAGCACACGU
B21: target 2 MT 5'PFS ACG 3'PFS CGA (mixed)
RNA 1: CACCCGUGCAAAAUUGCAGGGGUCUAAAACCUUCUCCAAAUUGUUUCAUCCU
RNA 2: GGGAAUGGAUCCACAUCUACGAAUUCACGAGGAUGAAACAAUUUGGAGAAGCGAAGAUCGGAAGAGCACACGU
B22: target 1 A1U,C7G (mixed)
RNA 1: CACCCGUGCAAAAAUGCAGGGGUCUAAAACUGAGCGGAUAACCUCUCUAUGG
RNA 2: GGGAAUGGAUCCACAUCUACGAAUUCGUACCAUAGAGAGGUUAUGCGCUCUCCGAGAUCGGAAGAGCACACGU
B23: target 1 insA 3' of 21,insC 3' of 11 (mixed)
RNA 1: CACCCGUGCAAAAAUGCAGGGGUCUAAAACUGAGCGGAUAACCUCUCUAUGG
RNA 2: GGGAAUGGAUCCACAUCUACGAAUUCGUACCAAUAGAGAGGUCUAUCCGCUCACCGAGAUCGGAAGAGCACACGU
B24: target 1 insA 3' of 4,insG 3' of 4 (mixed)
RNA 1: CACCCGUGCAAAAAUGCAGGGGUCUAAAACUGAGCGGAUAACCUCUCUAUGG
RNA 2: GGGAAUGGAUCCACAUCUACGAAUUCGUACCAUAGAGAGGUUAUCCGCAGUCACCGAGAUCGGAAGAGCACACGU

Molecular target: T1, EsCas13d, nuclease-dead
Experiment: crRNA (strand 1, pre-loaded); Mg2+; 40 mM Tris-HCl pH 7.5, 150 mM NaCl, 6 mM MgCl2, 1 mM DTT, 0.1% Tween-20, 0.2 mg/ml BSA; 25 C; 10 min per concentration, then washed
Conditions: tags: His6-TwinStrep-SUMO cleaved; N-terminal SNAP kept (SNAP-Surface 488); label: 3' end held by stalled T7 RNA polymerase

Binder	Kd [nM]
B1	5.1 ± 0.9
B2	25 ± 5
B3	75 ± 13
B4	21.1 ± 2.7
B5	13 ± 4
B6	4.26 ± 0.3
B7	2.7 ± 1.1
B8	8.8 ± 2.1
B9	5.4 ± 0.8
B10	27 ± 1.9
B11	6 ± 1.2
B12	12.7 ± 2.3
B13	9.2 ± 0.8
B14	15.6 ± 1.8
B15	24 ± 9
B16	15.2 ± 1.6
B17	8.2 ± 1.1
B18	52 ± 11
B19	21 ± 2.4
B20	28.1 ± 3.3
B21	8.5 ± 2.1
B22	9.9 ± 0.8
B23	~80
B24	5.32 ± 0.26
